The sequences below were run on Escherichia coli TOP10 (assay: shrunken log2 fold change of peptide-encoding DNA abundance (4.5 h post-induction vs induction); higher = less antimicrobial activity (less host growth inhibition)). Details: time post-induction: 4.5 h; library: site-saturation at positions 5, 18, 19, 20.
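Note: peptides expressed intracellularly from a pBAD plasmid library in pooled LB shake-flask culture, induced with 0.3% L-arabinose, DNA abundance read by NGS, three biological replicates, DESeq2 with apeglm shrinkage.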

| Sequence | shrunken log2 fold change |
| --- | --- |
| RRIRIRPPRLPRPRPRPFIPPRP | -0.697 |
| RRIRIRPPRLPRPRPRPFKPPRP | -0.395 |
| RRIRIRPPRLPRPRPRPFLMPRP | -0.314 |
| RRIRIRPPRLPRPRPRPFMYPRP | -1.36 |
| RRIRIRPPRLPRPRPRPFNCPRP | -0.0819 |
| RRIRIRPPRLPRPRPRPFNWPRP | -0.155 |
| RRIRIRPPRLPRPRPRPFPLPRP | -0.547 |
| RRIRIRPPRLPRPRPRPFQPPRP | -0.407 |
| RRIRIRPPRLPRPRPRPFSYPRP | 3.51 |
| RRIRIRPPRLPRPRPRPFVYPRP | -0.625 |
| RRIRIRPPRLPRPRPRPFYKPRP | -0.0824 |
| RRIRIRPPRLPRPRPRPFYTPRP | -0.324 |
| RRIRIRPPRLPRPRPRPGCDPRP | 0.0474 |
| RRIRIRPPRLPRPRPRPGDFPRP | -0.162 |
| RRIRIRPPRLPRPRPRPGDWPRP | 0.585 |
| RRIRIRPPRLPRPRPRPGELPRP | -0.0665 |
| RRIRIRPPRLPRPRPRPGGGPRP | 0.659 |
| RRIRIRPPRLPRPRPRPGGVPRP | 0.0574 |
| RRIRIRPPRLPRPRPRPGIHPRP | -0.31 |
| RRIRIRPPRLPRPRPRPGIMPRP | -0.137 |
| RRIRIRPPRLPRPRPRPGKCPRP | -0.215 |
| RRIRIRPPRLPRPRPRPGKRPRP | 0.0192 |
| RRIRIRPPRLPRPRPRPGLSPRP | -0.0218 |
| RRIRIRPPRLPRPRPRPGLVPRP | 0.0385 |
| RRIRIRPPRLPRPRPRPGMDPRP | -0.295 |

| Sequence | shrunken log2 fold change |
| --- | --- |
| RRIRIRPPRLPRPRPRPGMLPRP | 0.0213 |
| RRIRIRPPRLPRPRPRPGNRPRP | -0.0134 |
| RRIRIRPPRLPRPRPRPGPFPRP | -0.239 |
| RRIRIRPPRLPRPRPRPGRAPRP | 0.431 |
| RRIRIRPPRLPRPRPRPGSYPRP | -0.277 |
| RRIRIRPPRLPRPRPRPGTNPRP | -0.314 |
| RRIRIRPPRLPRPRPRPGTTPRP | 0.252 |
| RRIRIRPPRLPRPRPRPGVCPRP | 0.0702 |
| RRIRIRPPRLPRPRPRPGVLPRP | -0.0531 |
| RRIRIRPPRLPRPRPRPGWAPRP | 0.22 |
| RRIRIRPPRLPRPRPRPGWHPRP | -0.0557 |
| RRIRIRPPRLPRPRPRPGWKPRP | -0.0134 |
| RRIRIRPPRLPRPRPRPGWQPRP | 0.449 |
| RRIRIRPPRLPRPRPRPGYIPRP | -0.752 |
| RRIRIRPPRLPRPRPRPGYWPRP | -0.0497 |
| RRIRIRPPRLPRPRPRPHDVPRP | 0.000407 |
| RRIRIRPPRLPRPRPRPHEAPRP | -0.396 |
| RRIRIRPPRLPRPRPRPHEMPRP | -0.143 |
| RRIRIRPPRLPRPRPRPHFEPRP | -0.377 |
| RRIRIRPPRLPRPRPRPHFVPRP | -0.565 |
| RRIRIRPPRLPRPRPRPHFWPRP | 0.0146 |
| RRIRIRPPRLPRPRPRPHGCPRP | -0.282 |
| RRIRIRPPRLPRPRPRPHGGPRP | -0.0479 |
| RRIRIRPPRLPRPRPRPHHHPRP | -0.719 |
| RRIRIRPPRLPRPRPRPHKWPRP | -0.256 |

| Sequence | shrunken log2 fold change |
| --- | --- |
| RRIRIRPPRLPRPRPRPHKYPRP | -1.08 |
| RRIRIRPPRLPRPRPRPHLMPRP | -1.31 |
| RRIRIRPPRLPRPRPRPHMVPRP | -0.181 |
| RRIRIRPPRLPRPRPRPHNSPRP | -0.132 |
| RRIRIRPPRLPRPRPRPHPDPRP | -0.45 |
| RRIRIRPPRLPRPRPRPHPLPRP | -0.516 |
| RRIRIRPPRLPRPRPRPHPMPRP | -0.133 |
| RRIRIRPPRLPRPRPRPHPRPRP | 0.192 |
| RRIRIRPPRLPRPRPRPHPWPRP | -0.319 |
| RRIRIRPPRLPRPRPRPHQCPRP | -0.331 |
| RRIRIRPPRLPRPRPRPHRRPRP | -0.056 |
| RRIRIRPPRLPRPRPRPHSFPRP | -0.643 |
| RRIRIRPPRLPRPRPRPHSIPRP | -0.933 |
| RRIRIRPPRLPRPRPRPHSWPRP | -0.327 |
| RRIRIRPPRLPRPRPRPHTQPRP | -0.124 |
| RRIRIRPPRLPRPRPRPHVHPRP | -0.165 |
| RRIRIRPPRLPRPRPRPHYEPRP | -0.618 |
| RRIRIRPPRLPRPRPRPHYLPRP | -0.0913 |
| RRIRIRPPRLPRPRPRPHYVPRP | -0.342 |
| RRIRIRPPRLPRPRPRPIAAPRP | 0.0481 |
| RRIRIRPPRLPRPRPRPIACPRP | -0.0842 |
| RRIRIRPPRLPRPRPRPICCPRP | -0.107 |
| RRIRIRPPRLPRPRPRPICKPRP | -0.199 |
| RRIRIRPPRLPRPRPRPIDAPRP | -0.215 |
| RRIRIRPPRLPRPRPRPIDIPRP | -0.0353 |

| Sequence | shrunken log2 fold change |
| --- | --- |
| RRIRIRPPRLPRPRPRPIDRPRP | 0.203 |
| RRIRIRPPRLPRPRPRPIDSPRP | 0.0203 |
| RRIRIRPPRLPRPRPRPIENPRP | -0.223 |
| RRIRIRPPRLPRPRPRPIEVPRP | -0.0018 |
| RRIRIRPPRLPRPRPRPIEWPRP | -0.123 |
| RRIRIRPPRLPRPRPRPIFHPRP | -0.411 |
| RRIRIRPPRLPRPRPRPIFNPRP | -0.589 |
| RRIRIRPPRLPRPRPRPIFRPRP | -0.013 |
| RRIRIRPPRLPRPRPRPIGNPRP | -0.104 |
| RRIRIRPPRLPRPRPRPIHHPRP | -0.65 |
| RRIRIRPPRLPRPRPRPIHTPRP | -0.907 |
| RRIRIRPPRLPRPRPRPIINPRP | -1.15 |
| RRIRIRPPRLPRPRPRPIKEPRP | -0.021 |
| RRIRIRPPRLPRPRPRPIKLPRP | -0.289 |
| RRIRIRPPRLPRPRPRPILHPRP | -0.469 |
| RRIRIRPPRLPRPRPRPILYPRP | -0.357 |
| RRIRIRPPRLPRPRPRPIMAPRP | -0.286 |
| RRIRIRPPRLPRPRPRPIPCPRP | -0.00867 |
| RRIRIRPPRLPRPRPRPIPHPRP | -0.297 |
| RRIRIRPPRLPRPRPRPIPLPRP | 3.4 |
| RRIRIRPPRLPRPRPRPIPWPRP | -0.533 |
| RRIRIRPPRLPRPRPRPIQEPRP | 0.0527 |
| RRIRIRPPRLPRPRPRPIQLPRP | -0.058 |
| RRIRIRPPRLPRPRPRPISAPRP | -0.0879 |
| RRIRIRPPRLPRPRPRPITEPRP | -1.09 |

| Sequence | shrunken log2 fold change |
| --- | --- |
| RRIRIRPPRLPRPRPRPITNPRP | -0.176 |
| RRIRIRPPRLPRPRPRPIVWPRP | 0.136 |
| RRIRIRPPRLPRPRPRPIWDPRP | -0.282 |
| RRIRIRPPRLPRPRPRPIWVPRP | -0.145 |
| RRIRIRPPRLPRPRPRPIYGPRP | -0.000842 |
| RRIRIRPPRLPRPRPRPIYQPRP | -0.00516 |
| RRIRIRPPRLPRPRPRPKAPPRP | -0.0151 |
| RRIRIRPPRLPRPRPRPKDDPRP | -0.254 |
| RRIRIRPPRLPRPRPRPKENPRP | -0.505 |
| RRIRIRPPRLPRPRPRPKGCPRP | -0.00865 |
| RRIRIRPPRLPRPRPRPKGLPRP | 0.121 |
| RRIRIRPPRLPRPRPRPKGQPRP | 0.143 |
| RRIRIRPPRLPRPRPRPKHFPRP | -0.292 |
| RRIRIRPPRLPRPRPRPKHWPRP | 0.357 |
| RRIRIRPPRLPRPRPRPKIKPRP | -0.696 |
| RRIRIRPPRLPRPRPRPKLIPRP | -0.233 |
| RRIRIRPPRLPRPRPRPKMCPRP | 0.168 |
| RRIRIRPPRLPRPRPRPKMFPRP | 0.0072 |
| RRIRIRPPRLPRPRPRPKNMPRP | -0.577 |
| RRIRIRPPRLPRPRPRPKNYPRP | -0.417 |
| RRIRIRPPRLPRPRPRPKPCPRP | -0.0965 |
| RRIRIRPPRLPRPRPRPKPFPRP | -0.00302 |
| RRIRIRPPRLPRPRPRPKPPPRP | 0.269 |
| RRIRIRPPRLPRPRPRPKQTPRP | -0.0291 |
| RRIRIRPPRLPRPRPRPKQYPRP | -0.474 |

| Sequence | shrunken log2 fold change |
| --- | --- |
| RRIRIRPPRLPRPRPRPKRDPRP | -0.106 |
| RRIRIRPPRLPRPRPRPKSTPRP | -0.214 |
| RRIRIRPPRLPRPRPRPKVFPRP | 0.0502 |
| RRIRIRPPRLPRPRPRPKYNPRP | -1.01 |
| RRIRIRPPRLPRPRPRPLALPRP | -0.138 |
| RRIRIRPPRLPRPRPRPLCKPRP | -0.336 |
| RRIRIRPPRLPRPRPRPLDEPRP | -0.287 |
| RRIRIRPPRLPRPRPRPLDFPRP | 0.0619 |
| RRIRIRPPRLPRPRPRPLFHPRP | -0.779 |
| RRIRIRPPRLPRPRPRPLHDPRP | 0.181 |
| RRIRIRPPRLPRPRPRPLHKPRP | -0.165 |
| RRIRIRPPRLPRPRPRPLHYPRP | -0.779 |
| RRIRIRPPRLPRPRPRPLLFPRP | -0.553 |
| RRIRIRPPRLPRPRPRPLLHPRP | -0.221 |
| RRIRIRPPRLPRPRPRPLLMPRP | -0.489 |
| RRIRIRPPRLPRPRPRPLMMPRP | -1.03 |
| RRIRIRPPRLPRPRPRPLMPPRP | 1.27 |
| RRIRIRPPRLPRPRPRPLNCPRP | -0.0654 |
| RRIRIRPPRLPRPRPRPLPFPRP | -1.01 |
| RRIRIRPPRLPRPRPRPLQVPRP | -2 |
| RRIRIRPPRLPRPRPRPLRDPRP | 0.0322 |
| RRIRIRPPRLPRPRPRPLRSPRP | 0.299 |
| RRIRIRPPRLPRPRPRPLRYPRP | -0.409 |
| RRIRIRPPRLPRPRPRPLSEPRP | -0.0382 |
| RRIRIRPPRLPRPRPRPLSIPRP | -0.493 |

— the supplement of paper PMC9112550, “Optimization of the antimicrobial peptide Bac7 by deep mutational scanning” (BMC Biology, 2022)
